Holding throughout (assay type): cell-based, Saccharomyces cerevisiae
In one assay the test system is ABP1. Briefly: DHFR-PCA on solid medium, bait ABP1 (Fig. 1B). The conditions noted are these: bait ABP1, label = prey; 2-4 replicates. From the text: (§1) Supplement 41467_2021_21873_MOESM8_ESM.xlsx, sheet "Fig1B" | column: medsize; medrep; Ratio; Score
In the next assay the test system is BBC1. Briefly: DHFR-PCA on solid medium, bait BBC1 (Fig. 1B). The conditions noted are these: bait BBC1, label = prey; for medrep (log2 median colony size normalized to plate background, PCA score): 2-4 replicates; for Ratio (SH3-deleted/WT medrep): only significant differences showed, PPIs completely lost have a ratio of 0.1 and the gained PPIs 2.5.
Description: as §1

The next assay relates to BEM1-2. Kind of assay: DHFR-PCA on solid medium, bait BEM1-2 (Fig. 1B). As to conditions: bait BEM1-2, label = prey; for medrep (log2 median colony size normalized to plate background, PCA score): 2-8 replicates; for Ratio (SH3-deleted/WT medrep): only significant differences showed, PPIs completely lost have a ratio of 0.1 and the gained PPIs 2.5.
Description: as §1

In a further assay the test system is BEM1-1. Briefly: DHFR-PCA on solid medium, bait BEM1-1 (Fig. 1B). As to conditions: bait BEM1-1, label = prey; for medrep (log2 median colony size normalized to plate background, PCA score): 2-8 replicates; for Ratio (SH3-deleted/WT medrep): only significant differences showed, PPIs completely lost have a ratio of 0.1 and the gained PPIs 2.5.
Description: as §1

Assay [1] relates to 575 putative partners (preys) of 22 WT SH3-containing proteins. Briefly: DHFR-PCA on solid medium, WT and SH3-deleted baits (Fig. 1B). Further details: key to Score: 0: SH3-independent; 1: SH3-dependent PPIs; 2: SH3-inhibited PPIs. The conditions noted are these: for medrep (log2 median colony size normalized to plate background, PCA score): label = prey. An outline of the steps:
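In S. cerevisiae, 22 SH3-containing baits fused genomically to DHFR F[1,2], either WT or with each SH3 replaced via CRISPR by a poly-Gly/Ser linker, screened against 575 DHFR F[3] preys plus 40 negative controls in 1536 arrays, preys duplicated at randomized positions.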

For a further assay, the system named is BOI2. Briefly: DHFR-PCA on solid medium, bait BOI2 (Fig. 1B). The conditions noted are these: bait BOI2, label = prey.
Description: as §1

The next assay relates to Abp1 PPIs. Briefly: DHFR-PCA of Abp1 SH3-swapped baits (Fig. 2B-D, S2C, S2F). As to conditions: Fig2B; bait ABP1, label = prey; Replicates 4. An outline of the steps:
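Yeast DHFR-PCA in which Abp1 baits, carrying their SH3 replaced by CRISPR–Cas9 with one of 27 yeast SH3s or human CTTN, HCLS1 or DBNL SH3s, were mated against 575 SH3-associated DHFR F[3] preys plus 40 negative controls. Four tests were run per PPI. Diploids were selected twice (48 h, 30 °C), then grown 4 days on PCA selection media.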

The mark [2] stands for this setting: bait SLA1-2, DHFR-PCA, Replicates 4 (2 for YCR009C, YDR388W).
Where [3] appears, read: bait SLA1-3, DHFR-PCA, Replicates 4 (2 for YCR009C, YDR388W, YIL033C).

B1: YNL243W (protein, UniProt P33338 1-968, looked up)
Protein SLA2: MSRIDSDLQKALKKACSVEETAPKRKHVRACIVYTWDHQSSKAVFTTLKTLPLANDEVQLFKMLIVLHKIIQEGHPSALAEAIRDRDWIRSLGRVHSGGSSYSKLIREYVRYLVLKLDFHAHHRGFNNGTFEYEEYVSLVSVSDPDEGYETILDLMSLQDSLDEFSQIIFASIQSERRNTECKISALIPLIAESYGIYKFITSMLRAMHRQLNDAEGDAALQPLKERYELQHARLFEFYADCSSVKYLTTLVTIPKLPVDAPDVFLINDVDESKEIKFKKREPSVTPARTPARTPTPTPPVVAEPAISPRPVSQRTTSTPTGYLQTMPTGATTGMMIPTATGAANAIFPQATAQMQPDFWANQQAQFANEQNRLEQERVQQLQQQQAQQELFQQQLQKAQQDMMNMQLQQQNQHQNDLIALTNQYEKDQALLQQYDQRVQQLESEITTMDSTASKQLANKDEQLTALQDQLDVWERKYESLAKLYSQLRQEHLNLLPRFKKLQLKVNSAQESIQKKEQLEHKLKQKDLQMAELVKDRDRARLELERSINNAEADSAAATAAAETMTQDKMNPILDAILESGINTIQESVYNLDSPLSWSGPLTPPTFLLSLLESTSENATEFATSFNNLIVDGLAHGDQTEVIHCVSDFSTSMATLVTNSKAYAVTTLPQEQSDQILTLVKRCAREAQYFFEDLMSENLNQVGDEEKTDIVINANVDMQEKLQELSLAIEPLLNIQSVKSNKETNPHSELVATADKIVKSSEHLRVDVPKPLLSLALMIIDAVVALVKAAIQCQNEIATTTSIPLNQFYLKNSRWTEGLISAAKAVAGATNVLITTASKLITSEDNENTSPEQFIVASKEVAASTIQLVAASRVKTSIHSKAQDKLEHCSKDVTDACRSLGNHVMGMIEDDHSTSQQQQPLDFTSEHTLKTAEMEQQVEILKLEQSLSNARKRLGEIRRHAYYNQDDD
Turning to B1, the “medrep (log2 median colony size normalized to plate background, PCA score)” value is 4.661 with ABP1; 2.46 in the assay with BBC1; 1.569 in the assay on BEM1-2; 1.569 with BEM1-1; 4.4709 in assay [1] (setting [2]); 4.4709 in assay [1] (setting [3]). Moreover, the “Ratio (SH3-deleted/WT medrep)” value in the assay with BBC1, with BEM1-2 and in the assay with BEM1-1 was 0.1 in each case. Moreover, the Score in assay [1] (bait SLA1-2, label = prey) worked out at 0; in assay [1] (bait SLA1-3, label = prey) it was 0.

B2: YDR166C (protein, UniProt P89102 1-971, looked up)
Exocyst complex component SEC5: MDRFQIGDEQLLRFYQLKTINPTHSWAQDSSKLNNEEATSNELGVETSFDILKDFKYGNQISIDKESRAYLNDESLSYIRDPLNGQEMSKELQHLPNDSMRLNYLVNSKQFNVKAFLRDMHKQDSFNDLNNSLDRLDSDIQDQSIHLKQLVGKNFTKYVKIKNKLDQIYKEFDEKTNEKNQCDSPKENQINVESLNKKVDEVIRTTTFKLKPLMDNYQKILNYQATKKFIELNKFYFNLPKSLKRCLTNNDFNEFIIEYSKGLTLRRRFNQSSDASQSLVIKRIWTQIENLLVTYKDLIWNSLINSNFNIDQPQETILSLFSKLLNLENFINNNQRESESGNKNTTSSSNENPILRWMSIKMNGFQNELNELSGHMISKIIHSQRLILQNNTNQDKSQGCVELSYYLKINQLFQIISDTGKDSEGLKSTVEPNKVNTISGTSYLNLNCQPSSQGLTDSPTIIEMWLLILKYINDLWKICDQFIEFWEHIEKFLDGTYQNSIINEKRKENILIGDSNIIESYQKSLILKEEQINEVRLKGEEFITSVSQNLISFFTSSQSSLPSSLKDSTGDITRSNKDSGSPLDYGFIPPNCNGLSCLRYLPKIVEPILKFSTELAQLNITTNGITICRNTLSTIINRCVGAISSTKLRDISNFYQLENWQVYETVTFSSKSQDSSKNLTFEYGVTQFPEIVTSFQEVSIKTTRDLLFAYEKLPIINGISVVSYPSKQLLTGIEIQQIISMEAVLEAILKNAAKDKDNPRNSHTILTLTNLQYFRECAFPNILQYFDDAFEWNLASKNLELFSLLSKMESSIFGNYLSDLKINLRDTLEEKFHEINWPMYTSNSFRVGDYIIEALMILIVVHSECFRIGPQLIHKILIETQIFIARYLFEAFKPYVGNLSNDGSLQIIVDLEFFQKVMGPLLEKDTEATLRACLQNCFQNDTNRLQKCINEINPIVSANLKRTAIQFAAFS
Consider B2, for which the “medrep (log2 median colony size normalized to plate background, PCA score)” value with BEM1-2 stood at 2.981; in the assay on BEM1-1, 2.981; in the assay with BOI2 (3-8 replicates), 1.688. For the same molecule, the “Ratio (SH3-deleted/WT medrep)” value turned out to be 0.1 in the assay on BEM1-2; 0.1 in the assay on BOI2 (only significant differences showed, PPIs completely lost have a ratio of 0.1 and the gained PPIs 2.5).

B3: YGR229C (protein, UniProt P32566 1-505, looked up)
Cell wall assembly regulator …: MDLFKRKVKEWVYSLSTDDHYAEYNPDETPTFNMGKRLNSNNGQVNPSQMHLNSVDEEMSMGFQNGVPSNEDINIDEFTSTESNDGVSETLLAWRHIDFWTSEHNPDLNATLSDPCTQNDITHAEEDLEVSFPNPVKASFKIHDGQEDLESMTGTSGLFYGFQLMTLDQVVAMTQAWRNVAKNLNKRSQQGLSHVTSTGSSSSMERLNGNKFKLPNIPDQKSIPPNAVQPVYAHPAWIPLITDNAGNHIGVDLAPGPNGKYAQIITFGRDFDTKFVIAENWGEFLLSFANDLEAGNWYLVDDNDDYFSGDGELVFRDKKSNGPIQDYFEVLKRRTWIKYQENLRSQQQKSQPDTSLQEQKYVPASQKKVAAEQPSTLNAESIKGEDSGSADVQSVQDHESVKIVKTEPSEAETTTVNTESLGQAEHEIKADNVDIKQESERKEDEKQPKVEEKEHVENEHVTESAKKDDDVNKQTEEMNKKEENEIRSDDAKVEEAREEFENIAL
On to B3, for which the “medrep (log2 median colony size normalized to plate background, PCA score)” value is 3.977 in the assay on ABP1; 2.755 in the assay on BBC1; 1.341 in the assay with BEM1-2; 1.341 in the assay on BEM1-1; 3.075 in assay [1] (setting [2]); 3.075 in assay [1] (setting [3]). Moreover, the “Ratio (SH3-deleted/WT medrep)” value came out at 0.1 with BBC1; 0.1 in the assay on BEM1-1; 0.1 in assay [1] (bait SLA1-2, label = prey, only significant differences shown, PPIs completely lost have a ratio of 0.1, gained PPIs 2.5). Moreover, the Score in assay [1] (bait SLA1-2, label = prey) was 1; in assay [1] (bait SLA1-3, label = prey), 0.

B4: YBL007C (protein, UniProt P32790 1-1244, looked up)
Actin cytoskeleton-regulatory …: MTVFLGIYRAVYAYEPQTPEELAIQEDDLLYLLQKSDIDDWWTVKKRVIGSDSEEPVGLVPSTYIEEAPVLKKVRAIYDYEQVQNADEELTFHENDVFDVFDDKDADWLLVKSTVSNEFGFIPGNYVEPENGSTSKQEQAPAAAEAPAATPAAAPASAAVLPTNFLPPPQHNDRARMMQSKEDQAPDEDEEGPPPAMPARPTATTETTDATAAAVRSRTRLSYSDNDNDDEEDDYYYNSNSNNVGNHEYNTEYHSWNVTEIEGRKKKKAKLSIGNNKINFIPQKGTPHEWSIDKLVSYDNEKKHMFLEFVDPYRSLELHTGNTTTCEEIMNIIGEYKGASRDPGLREVEMASKSKKRGIVQYDFMAESQDELTIKSGDKVYILDDKKSKDWWMCQLVDSGKSGLVPAQFIEPVRDKKHTESTASGIIKSIKKNFTKSPSRSRSRSRSKSNANASWKDDELQNDVVGSAAGKRSRKSSLSSHKKNSSATKDFPNPKKSRLWVDRSGTFKVDAEFIGCAKGKIHLHKANGVKIAVAADKLSNEDLAYVEKITGFSLEKFKANDGSSSRGTDSRDSERERRRRLKEQEEKERDRRLKERELYELKKARELLDEERSRLQEKELPPIKPPRPTSTTSVPNTTSVPPAESSNNNNSSNKYDWFEFFLNCGVDVSNCQRYTINFDREQLTEDMMPDINNSMLRTLGLREGDIVRVMKHLDKKFGRENIASIPTNATGNMFSQPDGSLNVATSPETSLPQQLLPQTTSPAQTAPSTSAETDDAWTVKPASKSESNLLSKKSEFTGSMQDLLDLQPLEPKKAAASTPEPNLKDLEPVKTGGTTVPAAPVSSAPVSSAPAPLDPFKTGGNNILPLSTGFVMMPMITGGDMLPMQRTGGFVVPQTTFGMQSQVTGGILPVQKTGNGLIPISNTGGAMMPQTTFGAAATVLPLQKTGGGLIPIATTGGAQFPQTSFNVQGQQQLPTGSILPVQKTANGLISANTGVSMPTVQRTGGTMIPQTSFGVSQQLTGGAMMTQPQNTGSAMMPQTSFNAVPQITGGAMMPQTSFNALPQVTGGAMMPLQRTGGALNTFNTGGAMIPQTSFSSQAQNTGGFRPQSQFGLTLQKTGGIAPLNQNQFTGGAMNTLSTGGVLQQQQPQTMNTFNTGGVMQELQMMTTFNTGGAMQQPQMMNTFNTDGIMQQPQMMNTFNTGGAMQQPQQQALQNQPTGFGFGNGPQQSRQANIFNATASNPFGF
As for B4, the “medrep (log2 median colony size normalized to plate background, PCA score)” value in the assay with ABP1 was 4.393; in the assay with BBC1 it was 2.803; in assay [1] (setting [3]), 4.843. Further, the “Ratio (SH3-deleted/WT medrep)” value in the assay with BBC1 amounted to 0.1. Further, the “medrep (log2 median colony size normalized to plate background)” value in the assay on Abp1 PPIs is listed as 4.393. Besides, the Score in assay [1] (bait SLA1-3, label = prey) stood at 0.
